Laboratory results: the nanobody polyreactivity screen of Harvey et al. (2022)

Assay: yeast display, Sf9 membrane polyspecificity reagent, FACS + sequencing; frameworks hold sequencing errors
In short: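 Polyreactivity labels are assigned by the sorting gate from which each nanobody was recovered. The gates were low and high (top ~1%), set on anti-HA fluorescence for expression and streptavidin fluorescence for reagent binding. Before sorting, galactose-induced (36–48 hours) yeast display cells were stained for 1 hour at 4 °C with 10% biotinylated, detergent-solubilized Sf9 membrane reagent.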

Sequence	polyreactivity (PSR sort gate)
QVQLVESGGGLVQAGGSLRLSCDASGGIFRFNSMGWYRQAPGKERELVAGISSTYYADSVKGRFTISRDNAKNTVYLQMNSLKPEDTAVYYCAAAGPEEHGYTYPGNNQMESWGQGTQVTVSS	low polyreactivity
QVQLVESGGGLVQAGGSLRLSCDASGGTFYRNAMGWYRQAHGKERELVAVISKRGTSTYYADSVKGRFTISRDNAKNTVYLQMNSLKPEDTAVYYCATVYYHLSPNRPYGYWGQGTQVTLSS	high polyreactivity
QVQLVESGGGLVQAGGSLRLSCDASGITFVRYTIRWYRQAPGKEREFVAGITRGGSTYYADSVKGRFTISPDNAKNNVFLQRNSLKPEDTAVYYCAARPRFLRASVEYDYWGQGTQVTVSS	high polyreactivity
QVQLVESGGGLVQAGGSLRLSCDASGLIFYSYAMGWYRQAPGKERELVAAISSRGGSTYYADSVKGRFTISRDNAKNTVYLQMNSLKQEDSAVYYCNAYFLLPHYDYWGQGTQVTVSS	low polyreactivity
QVQLVESGGGLVQAGGSLRLSCDASGRIFGRYAMGSYRPAPGNDRELVAAIPRNGGSTYADSVKGRFTISRDNAKNTVYLQMNSLKPEDTAVYYCAARNSYRYSKYDYWGQGTQVTVSS	high polyreactivity
QVQLVESGGGLVQAGGSLRLSCDASGRIFGYYAMGWYRQAPGKERELVAAISDGGSTDYADSVKGRFTISRDNAKNTVYLQMNSLKPEDTAVYYCNADRLYLYNVEYDYWGQGTQVTVSS	low polyreactivity
QVQLVESGGGLVQAGGSLRLSCDASGRIFRANAMGWYRQAPGKERELVASISRGGSTNYADSVKGRFTISRDNAKNTVYLQMNRLKPEDTAVYYCAARLGFYPYGYTSWYTVYYWGQGTQVTVSS	low polyreactivity
QVQLVESGGGLVQAGGSLRLSCDASGRIFRYNSMGWYRQAPGKEREFVAAITWRGGSTYYADSVKGRFTISRDNAKYNVYFQMNSLKPEDTAVYYCATRSPFGAAYEYGYWGQGTQVTVSS	high polyreactivity
QVQLVESGGGLVQAGGSLRLSCDASGRNFRRNAMGWYRQAPGKERELVAAITGGGSTNYADSVKGRFTISRDNAKNTVYLQMNSLKPEDTAVYYCAARRYGVRTYRFDSWGQGTQVTVSS	high polyreactivity
QVQLVESGGGLVQAGGSLRLSCDASGRTCFKYAMGWYRQAPGKERELVATITSSGGITYADSVKGRFTISRDNAKNTVYLQMNSLKPEDTAVYYCNARVWVTHYSELNYWGQGTQVTVSS	low polyreactivity
QVQLVESGGGLVQAGGSLRLSCDASGRTFGQNAMGWYRQAPGKERELVAGIDWSCGNTYYADSVKGRFTISRDNAKNTVYLQMNSLKPEDTAVYYCNTEGGRDTDWYDYWGQGTQVTVSS	low polyreactivity
QVQLVESGGGLVQAGGSLRLSCDASGRTFYRNDMGWYRQAPGKERELVAAISSGGSTTYADSVKGRFTISRDNAKNTVYLQMNSLKPEDTAVYYCAADFLDYWGVYGWAEYEYWGQGTQVTVSS	low polyreactivity
QVQLVESGGGLVQAGGSLRLSCDASGRTFYVYAMGWYRQAPGKERELVAAISSSGGSTYYADSVKGRFTISRDNAKNTVYLQMNSLKPEDTAVYYCAVVTPRYYGDTKYDYWGQGTQVTVSS	high polyreactivity
QVQLVESGGGLVQAGGSLRLSCDASGSIFAWYAMGWYRQAPGKERELVATITWSGGSTYYADSVKGRFTISRDNANNTVYLQMNSLKQEDTAVYYCAADRVWPYYQYDYWGQGTQVSVSS	low polyreactivity
QVQLVESGGGLVQAGGSLRLSCDASGSIFAYYAMRWYRPAPGKERELVAAISSRGGNTYYADSVKGRFTISRDYAKNTVYLQMNSLKPEDNAVYYCAAYSASYTFDYWGQGTQVTVSS	high polyreactivity
QVQLVESGGGLVQAGGSLRLSCDASGSIFDRYVMGWYRQAPGKERELVAAITTSGDGTYYADSVKGRFTISRDNAKNSVYLQMNSLKREDTAVYYCAAVRRSWKYSTSDYWGQGTQVTVSS	low polyreactivity
QVQLVESGGGLVQAGGSLRLSCDASGSIFPVYAMGWYRQAPGKERELVAAISSRGGRTYYADSVKGRFTISRDNAKNTVYLQMNSLKPEDNAVYYCATDYATYYRLPSQYDYWGQGTQVTVSS	low polyreactivity
QVQLVESGGGLVQAGGSLRLSCDASGSIFPYNAMGWYRQAPGKEREFVAAINLSGRSTNYADSVKGRFTISRDNAKNTVYLQMNSLKPEDTAVYYCNAPFVYFWPLNFDYWGQGTQVTVSS	low polyreactivity
QVQLVESGGGLVQAGGSLRLSCDASGSIFRGNAMGCYRQAPGKERELVPDITSGSNTYYADSVKGRFTISRDNAKNTVYLQMNSLKPEDTAVYYCAADGVAYPWWSVYNSFDYWGQGTQVTVSS	low polyreactivity
QVQLVESGGGLVQAGGSLRLSCDASGSIFRGNAMGWYRQAPGKERELVATITNGGSTNYADSVKGRFTISRDNAKNTVYLQMNSLKPEDTAVYYCNADHSYHIASTRHVDYWGQGTQVTVSS	low polyreactivity
QVQLVESGGGLVQAGGSLRLSCDASGSIFRSYAMGWYRQAPGKERELVASITRSSGSTYYADSVKGRFTISRDNAKNTVYLQMNSLKPEDTAVYYCAAYTGVRGYYYWGQGTQVTVSS	high polyreactivity
QVQLVESGGGLVQAGGSLRLSCDASGSIFRYYGMGWYRQAPGKEREMVAVISYRGGSTYYADSVKGRFTISRDNAKNTVYLQMNSLKPEDTAVYYCIADDPSKLGYEHDYWGQGTQVTVSS	low polyreactivity

Sequence	polyreactivity (PSR sort gate)
QVQLVESGGGLVQAGGSLRLSCDASGSILVAYAIGWYRQAPGKEREFVAAISSVGNTYYADSVKGRFTISRDNAKNTVYLQMNSLKPEDTAVYYCNAVYRVWYAEWSTVGSPHDYWGQGTQVTVSS	low polyreactivity
QVQLVESGGGLVQAGGSLRLSCDASGSTFGIYAMGCYRQAPGKERELVAANSRSGDSTYYADSVKGRFTISRDNAKNTVDLQMNSLKPEDTAVYYCAADSYRLRYWAVTTHRVQYDYWGQGTQVTVSS	low polyreactivity
QVQLVESGGGLVQAGGSLRLSCDASGSTFGPYTMGWYRQAPGKERELVATISSGGSTYYADSVKGRFTISRDNAKNTVYLQMNSLKPEETAVYYCAARYWSIYDYWGPGTQVTVSS	low polyreactivity
QVQLVESGGGLVQAGGSLRLSCDASGSTFISYAMGWFRQAPGKERELVAAISSGGGRTSYADSVKGRFTISRDNEKNTVYLQMNSLKPEDTAVYYCNTKKLPYAEGYWGQGTQVTVSS	low polyreactivity
QVQLVESGGGLVQAGGSLRLSCDASGSTFRGNAMGWYRQAPGKEREFVASISRRGGRTNYADSVKGRFTISRDNAKNTVYLQMNSVKPEDTAVYYCAATTVPLGDYWGLGTQVTVSS	high polyreactivity
QVQLVESGGGLVQAGGSLRLSCDASGSTFSDYAMGWYRQAPGKERELVAAISDSGSGTYYADSVKGRFTISRDNAKNTVYLQMNSLKPEDTAVYYCNTDPRFAMDWGQGTQVTVSS	low polyreactivity
QVQLVESGGGLVQAGGSLRLSCDASGSTFTGYAMGWYRQAPGKERELVAAISRSGGSTSYADSVKGRFTISRDNAKNTVYLQMNSLKPEDTAGYYCAAQVQGTTRAKQRGGIGELDYWGQGTQVTVSS	low polyreactivity
QVQLVESGGGLVQAGGSLRLSCDASGSTFWYAMGWYIKAPGKEMDLVAAITARGGRTYYADSVKGRFTISRDNAKNTVYLQMNSLKPEDTAVYYCARLSYAGGQWIIGKYDYWGQGTQVTVSS	high polyreactivity
QVQLVESGGGLVQAGGSLRLSCDASGSTFYLYKGWYRQAPGKERELVAAITSGGRTYYADSVKGRFTISRDNAKNSVYLQMNSLKPVVSAVYYCARPYSRAYDYWGEGTQVTVSS	high polyreactivity
QVQLVESGGGLVQAGGSLRLSCDASGSTLVVNAMGWYRPAPGKERELVAAISDGGSTNYADSVKGRFTISRDNAMNTVYLQMNSLKPEDTADYYCAKDCETEVIDDYWGQGTQVTVSS	low polyreactivity
QVQLVESGGGLVQAGGSLRLSCDASVSIFVANAMGWSRQATGKERELVAAITGRGSRTYYADSVKGRFTISRDNAKNTVYLQMNSLKPEDTAVYYCADRYTNYGGYYWGQGTQVTVSS	high polyreactivity
QVQLVESGGGLVQAGGSLRLSCGASGAIFSRYAMGWSRPAPGKERQLVAAITSSGGSTYYADSVKGRFTISRDNAKNTVYLQMNSLKPEDTAVYYCATQYAGPWGEYDYWGQGTQVTVSS	low polyreactivity
QVQLVESGGGLVQAGGSLRLSCGASGFSFTRTAMGWYRQAPGKERELVAAISRGGSTNYADSVKGRFTISRDNAKITVYFQMNSLNPEDPSLYFCAKVRTRATPGVDYYYWGQGSQVTVSS	high polyreactivity
QVQLVESGGGLVQAGGSLRLSCGASGFTFDVYAMGWYRQAPGKERELVARIRWSGGSTSYADSVKGRFTISRDNAKNTVYVQMNSLKPEDTAVYYCNTRRIYVNSGRGDYWGQGTKVTVSS	low polyreactivity
QVQLVESGGGLVQAGGSLRLSCGASGFTFQFYDRGGYRQAPGKEREFVATITWRAGSTYSADSVKGRFTISRDNAKNTVYLQMNSLKPEDTAVYYCNADYYRHSLDYDYVGYDYWGQGTQVTVSS	low polyreactivity
QVQLVESGGGLVQAGGSLRLSCGASGFTFRPYAMGWYRQAPGKERELVAAITSGDSTNYADSVKGRFTISCDNAKNTVYLQMNSLKPEDTAVYYCAADSTGRPSVSYDYWGQGTQVTVSS	low polyreactivity
QVQLVESGGGLVQAGGSLRLSCGASGRIFGPYTMGWARQGPGKERELVARISRRGGSTYYADSVKGRFTISRDNAKNTVYLQMNSLKPEDTAVYYCARSQAVYDGWFAKFGYWGQGTQVTVSS	low polyreactivity
QVQLVESGGGLVQAGGSLRLSCGASGRIFTRYAMGWYRQAPGKERELVAAISYGGGGTYYADSVKGRFTISRDNAKNTVYLQINSLKPEDTAVYYCATDDPLSQINEQCMDYWGQGTQVTVSS	low polyreactivity
QVQLVESGGGLVQAGGSLRLSCGASGRTFYRYDMGWYRQAPGKERELVASITSGGNTNYADSVKGRFTISRDNAKNTVYLQMNSLKPEDTAVYYCAKEWYRVQHYRLITEFDYWGQGTQVTVSS	high polyreactivity
QVQLVESGGGLVQAGGSLRLSCGASGSIFKYYAMGWYREARGKERELVAAITWSGGRTNYADSVKGRFTISRDNAKNTVYLQMNSLKPEDTAVYYCAATRRRYRPYEYWGLGTQVTVSS	high polyreactivity
QVQLVESGGGLVQAGGSLRLSCGASGSTFAYYTMGWYRQAPAKERELVAAITSGGRTSYAESVKGRFTISRDNAKNTVYLQMNSLKPEDTAVYYCAKGRKPGYYYWGQGTQVTVSS	high polyreactivity
